The values that follow come from patent publication US20200316226A1.

Assay [1] addresses Discoidin domain receptor tyrosine kinase 2 (DDR2) on neonatal rat cardiac fibroblasts (rat). Nature of the assay: cell-based or functional assay.
The target of assay [2] is CD68 on macrophages of mouse splenocytes (mouse) (UniProt P31996). Nature of the assay: cell-based or functional assay.
UniProt P31996, sequence (P31996 21-326): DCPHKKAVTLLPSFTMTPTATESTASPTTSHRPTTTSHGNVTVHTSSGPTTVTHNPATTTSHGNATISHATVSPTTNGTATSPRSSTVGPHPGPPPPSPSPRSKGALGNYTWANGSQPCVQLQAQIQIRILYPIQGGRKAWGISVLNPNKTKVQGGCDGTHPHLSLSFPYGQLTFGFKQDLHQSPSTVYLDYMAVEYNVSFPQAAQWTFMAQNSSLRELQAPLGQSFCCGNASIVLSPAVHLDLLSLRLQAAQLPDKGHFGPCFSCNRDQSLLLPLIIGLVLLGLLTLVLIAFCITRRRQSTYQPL

As to “biotinylated IgG isotype antibody (bio-IgG) control (rabbit IgG isotype control, Abcam cat # ab200208)”, in assay [1], the rate of uptake of control-cloaked CDCexo by rat cardiac fibroblasts, flow cytometry was 5% and the uptake of bio-IgG/FITC CDC-EV by neonatal rat cardiac fibroblasts after twelve hours, flow cytometry stood at 5%.

In assay [2], “biotinylated CD68 monoclonal antibody (bio-CD68), clone FA-11 (ThermoFisher)” came in with a macrophage uptake of FITC:CD68-cloaked CDCexo by FACS, 5 minutes of incubation of 91% and a macrophage uptake of FITC:CD68-cloaked CDCexo by FACS, 15 minutes of incubation of 93%.
